Patent US20260125451A1
Values belong to the binder of their own block, whether it stands above or below them.

Target: BAFF and ARPIL
Experiment: cell-based or functional assay

B1: Telitacicept (RCT-18) (Fc fusion)
chain: SRVDQEERFPQGLWTGVAMRSCPEEQYWDPLLGTCMSCKTICNHQSQRTCAAFCRSLSCRKEQGKFYDHLLRDCISCASICGQHPKQCAYFCENKLRSPVNLPPELDKTHTCPPCPAPEAEGAPSVFLFPPKPKDTLMISRTPEVTCVVVDVSHEDPEVKFNWYVDGVEVHNAKTKPREEQYNSTYRVVSVLTVLHQDWLNGKEYKCKVSNKALPSSIEKTISKAKGQPREPQVYTLPPSRDELTKNQVSLTCLVKGFYPSDIAVEWESNGQPENNYKTTPPVLDSDGSFFLYSKLTVDKSRWQQGNVFSCSVMHEALHNHYTQKSLSLSPGK
- CD27+ CD38+ plasma cell count, mean, BAFF + APRIL-induced, drug at 10 nM: 2450 count
- CD27+ CD38+ plasma cell count, mean, BAFF + APRIL-induced, drug at 100 nM: 510 count
- CD27+ CD38+ plasma cell count, mean, BAFF + APRIL-induced, drug at 1000 nM: 230 count

B2: B637302 (protein)
heavy: EVQLVQSGAEVKKPGESLKISCKGSGYIFTNYWIAWVRQMPGKGLESMGIIYPGDSDIRYSPSFQGQVTISADKSITTAYLQWSSLKASDTAMYYCARHDIEGFDYWGRGTLVTVSSASTKGPSVFPLAPSSKSTSGGTAALGCLVKDYFPEPVTVSWNSGALTSGVHTFPAVLQSSGLYSLSSVVTVPSSSLGTQTYICNVNHKPSNTKVDKRVEPKSCDKTHTCPPCPAPEFEGGPSVFLFPPKPKDTLMISRTPEVTCVVVDVSHEDPEVKFNWYVDGVEVHNAKTKPREEQYNSTYRVVSVLTVLHQDWLNGKEYKCKVSNKALPASIEKTISKAKGQPREPQVYTLPPSRDELTKNQVSLTCLVKGFYPSDIAVEWESNGQPENNYKTTPPVLDSDGSFFLYSKLTVDKSRWQQGNVFSCSVMHEALHNHYTQKSLSLSPGK
light: EIVLTQSPGTLSLSPGERATLSCRASQSVSSSFFAWYQQKPGQAPRLLIYGASSRATGIPDRLSGSGSGTDFTLTITRLEPEDFAVYYCQQYDSSAITFGQGTRLEIKRTVAAPSVFIFPPSDEQLKSGTASVVCLLNNFYPREAKVQWKVDNALQSGNSQESVTEQDSKDSTYSLSSTLTLSKADYEKHKVYACEVTHQGLSSPVTKSFNRGECGGGGSGGGGSMLQMAGQCSQNEYFDSLLHACIPCQLRCSSNTPPLTCQRYCSTSCREEQGEFYDHLLRDCISCASICGQHPKQCAAFCE
- CD27+ CD38+ plasma cell count, mean, BAFF + APRIL-induced, drug at 10 nM: 563 count
- CD27+ CD38+ plasma cell count, mean, BAFF + APRIL-induced, drug at 100 nM: 482 count
- CD27+ CD38+ plasma cell count, mean, BAFF + APRIL-induced, drug at 1000 nM: 137 count

Continued, values first:

- CD27+ CD38+ plasma cell count, mean, BAFF + APRIL-induced, drug at 10 nM: 654 count
- CD27+ CD38+ plasma cell count, mean, BAFF + APRIL-induced, drug at 100 nM: 549 count
- CD27+ CD38+ plasma cell count, mean, BAFF + APRIL-induced, drug at 1000 nM: 426 count
B3: B606401 (protein)
heavy: B2 heavy
light: EIVLTQSPGTLSLSPGERATLSCRASQSVSSSFFAWYQQKPGQAPRLLIYGASSRATGIPDRLSGSGSGTDFTLTITRLEPEDFAVYYCQQYDSSAITFGQGTRLEIKRTVAAPSVFIFPPSDEQLKSGTASVVCLLNNFYPREAKVQWKVDNALQSGNSQESVTEQDSKDSTYSLSSTLTLSKADYEKHKVYACEVTHQGLSSPVTKSFNRGECGGGGSGGGGSSTSCREEQGEFYDHLLRDCISCASICGQHPKQCAAFCE

- CD27+ CD38+ plasma cell count, mean, BAFF + APRIL-induced, drug at 10 nM: 575 count
- CD27+ CD38+ plasma cell count, mean, BAFF + APRIL-induced, drug at 100 nM: 520 count
- CD27+ CD38+ plasma cell count, mean, BAFF + APRIL-induced, drug at 1000 nM: 410 count
B4: B746201 (protein)
heavy: EVQLVQSGAEVKKPGESLKISCKGSGYIFTNYWIAWVRQMPGKGLESMGIIYPGDSDIRYSPSFQGQVTISADKSITTAYLQWSSLKASDTAMYYCARHDIEGFDYWGRGTLVTVSSASTKGPSVFPLAPSSKSTSGGTAALGCLVKDYFPEPVTVSWNSGALTSGVHTFPAVLQSSGLYSLSSVVTVPSSSLGTQTYICNVNHKPSNTKVDKRVEPKSCDKTHTCPPCPAPEFEGGPSVFLFPPKPKDTLMISRTPEVTCVVVDVSHEDPEVKFNWYVDGVEVHNAKTKPREEQYNSTYRVVSVLTVLHQDWLNGKEYKCKVSNKALPASIEKTISKAKGQPREPQVYTLPPSRDELTKNQVSLTCLVKGFYPSDIAVEWESNGQPENNYKTTPPVLDSDGSFFLYSKLTVDKSRWQQGNVFSCSVMHEALHNHYTQKSLSLSPGKGGGGSGGGGSGGGGSMLQMAGQCSQNEYFDSLLHACIPCQLRCSSNTPPLTCQRYCSTSCREEQGEFYDHLLRDCISCASICGQHPKQCAAFCE
light: EIVLTQSPGTLSLSPGERATLSCRASQSVSSSFFAWYQQKPGQAPRLLIYGASSRATGIPDRLSGSGSGTDFTLTITRLEPEDFAVYYCQQYDSSAITFGQGTRLEIKRTVAAPSVFIFPPSDEQLKSGTASVVCLLNNFYPREAKVQWKVDNALQSGNSQESVTEQDSKDSTYSLSSTLTLSKADYEKHKVYACEVTHQGLSSPVTKSFNRGEC

- CD27+ CD38+ plasma cell count, mean, BAFF + APRIL-induced, drug at 10 nM: 434 count
- CD27+ CD38+ plasma cell count, mean, BAFF + APRIL-induced, drug at 100 nM: 426 count
- CD27+ CD38+ plasma cell count, mean, BAFF + APRIL-induced, drug at 1000 nM: 438 count
B5: B805201 (protein)
heavy: EVQLVQSGAEVKKPGESLKISCKGSGYIFTNYWIAWVRQMPGKGLESMGIIYPGDSDIRYSPSFQGQVTISADKSITTAYLQWSSLKASDTAMYYCARHDIEGFDYWGRGTLVTVSSASTKGPSVFPLAPSSKSTSGGTAALGCLVKDYFPEPVTVSWNSGALTSGVHTFPAVLQSSGLYSLSSVVTVPSSSLGTQTYICNVNHKPSNTKVDKRVEPKSCDKTHTCPPCPAPEFEGGPSVFLFPPKPKDTLMISRTPEVTCVVVDVSHEDPEVKFNWYVDGVEVHNAKTKPREEQYNSTYRVVSVLTVLHQDWLNGKEYKCKVSNKALPASIEKTISKAKGQPREPQVYTLPPSRDELTKNQVSLTCLVKGFYPSDIAVEWESNGQPENNYKTTPPVLDSDGSFFLYSKLTVDKSRWQQGNVFSCSVMHEALHNHYTQKSLSLSPGKGGGGSGGGGSGGGGSSTSCREEQGEFYDHLLRDCISCASICGQHPKQCAAFCE
light: B4 light
